The assay addresses T1, Human ST2-Flag-His (recombinant IL-33R, extracellular domain) (human, UniProt Q01638-1 19-328).
T1 construct: human ST2 (IL1RL1, IL-33 receptor), recombinant protein encompassing the extracellular domain; Captured on the chip through its His tag by an immobilised penta-His antibody; also called IL-33R/ST2; IL1RL1; source: prepared by Amgen
T1 sequence (looked up): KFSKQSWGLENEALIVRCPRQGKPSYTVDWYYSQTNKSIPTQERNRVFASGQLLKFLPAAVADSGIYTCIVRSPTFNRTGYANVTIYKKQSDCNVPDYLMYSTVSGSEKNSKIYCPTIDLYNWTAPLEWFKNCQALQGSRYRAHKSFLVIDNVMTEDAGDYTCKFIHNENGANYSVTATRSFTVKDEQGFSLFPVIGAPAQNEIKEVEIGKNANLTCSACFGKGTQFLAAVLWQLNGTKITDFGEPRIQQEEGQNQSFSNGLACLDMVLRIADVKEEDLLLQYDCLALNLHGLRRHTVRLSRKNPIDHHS
As to the kind of experiment: SPR; Biacore T200, CM5 chip; human ST2-Flag-His captured by amine-coupled penta-His antibody; IL-33 variants injected at 200 nM (180 s association, 300 s dissociation); 25°C, HBS-P (10 mM HEPES pH 7.4, 150 mM NaCl, 0.05% P20); single replicate. As to conditions: both partners purified.

B1: IL-33 (95-270), wild type cytokine domain (domain or fragment, human, UniProt O95760-1 95-270, looked up)
chain: AFGISGVQKYTRALHDSSITGISPITEYLASLSTYNDQSITFALEDESYEIYVEDLKKDEKKDKVLLSYYESQHPSNESGDGVDGKMLMVTLSPTKDFWLHANNKEHSVELHKCEKPLPDQAFFVLHNMHSNCVSFECKTDPGVFIGVKDNHLALIKVDSSENLCTENILFKLSET
notes: human interleukin-33, residues 95-270 of the 270-residue protein, released by thrombin cleavage from a poly-His fusion (pET24a); Start at residue 95 chosen after the natural processing of IL-33; also called wild type IL-33 (95–270); IL-33 (95–270) (Amgen); source: E. coli, purified (nickel HisTrap, SEC, thrombin cleavage, SEC); not shown: poly-His, N-terminal, cleaved
Turning to B1, the binding result is listed as “binds”.

Source of the values: PMC5362243, “A rare IL33 loss-of-function mutation reduces blood eosinophil counts and protects from asthma” (PLoS Genetics, 2017).
